Columns and labels:
[1] = test system: HeLa Kyoto; test: solubility in G1/S (NP-40 vs SDS abundance) (log2 ratio); higher = more soluble; details: cell cycle stage: G1/S
[2] = test system: HeLa Kyoto; test: melting temperature (median over replicates), in situ; higher = more thermally stable
[3] = test system: HeLa Kyoto; test: solubility change mitosis vs G1/S (difference of NP-40 vs SDS log2 ratios) (log2 ratio difference); higher = more soluble in mitosis
[4] = test system: HeLa Kyoto; test: thermal stability score vs G1/S (z-score of summed log2 fold changes over temperatures); higher = more thermally stable than in G1/S
[5] = cell cycle stage: early G1 (4.5 h after nocodazole release)
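Wherever melting temperature (median over replicates), in situ is given: HeLa Kyoto cells synchronized by double thymidine or nocodazole block, proteins quantified by TMT10plex mass spectrometry, three independent biological replicates.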
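Wherever solubility change mitosis vs G1/S (difference of NP-40 vs SDS log2 ratios) is given: synchronized HeLa Kyoto cells (double thymidine block for G1/S, nocodazole release for mitosis), protein amounts in NP-40 versus SDS lysates quantified by mass spectrometry, three biological replicates.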
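Wherever solubility in G1/S (NP-40 vs SDS abundance) is given: HeLa Kyoto cells arrested at G1/S by double thymidine block, proteins quantified by TMT10plex mass spectrometry in mild NP-40 versus SDS extracts, three biological replicates.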
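Wherever thermal stability score vs G1/S (z-score of summed log2 fold changes over temperatures) is given: synchronized HeLa Kyoto cells, proteins quantified by TMT10plex mass spectrometry, three biological replicates, mitosis taken 0.5 h after nocodazole release, G1/S directly after double thymidine block.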

Sequence	solubility in G1/S (log2) [1]	melting temperature ([2]; cell cycle stage: G1/S) [°C]	melting temperature ([2]; cell cycle stage: mitosis) [°C]	solubility change mitosis (log2) [3]	thermal stability score [4, 5]	thermal stability score ([4]; cell cycle stage: mitosis)
MAVTDSLSRAATVLATVLLLSFGSVAASHIEDQAEQFFRSGHTNNWAVLVCTSRFWFNYRHVANTLSVYRSVKRLGIPDSHIVLMLADDMACNPRNPKPATVFSHKNMELNVYGDDVEVDYRSYEVTVENFLRVLTGRIPPSTPRSKRLLSDDRSNILIYMTGHGGNGFLKFQDSEEITNIELADAFEQMWQKRRYNELLFIIDTCQGASMYERFYSPNIMALASSQVGEDSLSHQPDPAIGVHLMDRYTFYVLEFLEEINPASQTNMNDLFQVCPKSLCVSTPGHRTDLFQRDPKNVLITDFFGSVRKVEITTETIKLQQDSEIMESSYKEDQMDEKLMEPLKYAEQLPVAQIIHQKPKLKDWHPPGGFILGLWALIIMVFFKTYGIKHMKFIF [PIGK]	-0.134	53.5	53.5	-0.0814	1.4	0.424
MAVVPLLLLGGLWSAVGASSLGVVTCGSVVKLLNTRHNVRLHSHDVRYGSGSGQQSVTGVTSVDDSNSYWRIRGKSATVCERGTPIKCGQPIRLTHVNTGRNLHSHHFTSPLSGNQEVSAFGEEGEGDYLDDWTVLCNGPYWVRDGEVRFKHSSTEVLLSVTGEQYGRPISGQKEVHGMAQPSQNNYWKAMEGIFMKPSELLKAEAHHAEL [SDF2]	0.097	54.3	54.1	-0.129	4.15	3.09
MCGIWALFGSDDCLSVQCLSAMKIAHRGPDAFRFENVNGYTNCCFGFHRLAVVDPLFGMQPIRVKKYPYLWLCYNGEIYNHKKMQQHFEFEYQTKVDGEIILHLYDKGGIEQTICMLDGVFAFVLLDTANKKVFLGRDTYGVRPLFKAMTEDGFLAVCSEAKGLVTLKHSATPFLKVEPFLPGHYEVLDLKPNGKVASVEMVKYHHCRDVPLHALYDNVEKLFPGFEIETVKNNLRILFNNAVKKRLMTDRRIGCLLSGGLDSSLVAATLLKQLKEAQVQYPLQTFAIGMEDSPDLLAARKVADHIGSEHYEVLFNSEEGIQALDEVIFSLETYDITTVRASVGMYLISKYIRKNTDSVVIFSGEGSDELTQGYIYFHKAPSPEKAEEESERLLRELYLFDVLRADRTTAAHGLELRVPFLDHRFSSYYLSLPPEMRIPKNGIEKHLLRETFEDSNLIPKEILWRPKEAFSDGITSVKNSWFKILQEYVEHQVDDAMMANAAQKFPFNTPKTKEGYYYRQVFERHYPGRADWLSHYWMPKWINATDPSARTLTHYKSAVKA [ASNS]	-0.142	52.8	53.1	-0.21	2.34	-0.215
MCQVGEDYGEPAPEEPPPAPRPSREQKCVKCKEAQPVVVIRAGDAFCRDCFKAFYVHKFRAMLGKNRLIFPGEKVLLAWSGGPSSSSMVWQVLEGLSQDSAKRLRFVAGVIFVDEGAACGQSLEERSKTLAEVKPILQATGFPWHVVALEEVFSLPPSVLWCSAQELVGSEGAYKAAVDSFLQQQHVLGAGGGPGPTQGEEQPPQPPLDPQNLARPPAPAQTEALSQLFCSVRTLTAKEELLQTLRTHLILHMARAHGYSKVMTGDSCTRLAIKLMTNLALGRGAFLAWDTGFSDERHGDVVVVRPMRDHTLKEVAFYNRLFSVPSVFTPAVDTKAPEKASIHRLMEAFILRLQTQFPSTVSTVYRTSEKLVKGPRDGPAAGDSGPRCLLCMCALDVDAADSATAFGAQTSSRLSQMQSPIPLTETRTPPGPCCSPGVGWAQRCGQGACRREDPQACIEEQLCYSCRVNMKDLPSLDPLPPYILAEAQLRTQRAWGLQEIRDCLIEDSDDEAGQS [CTU2]	0.28	53.4	52.8	-0.166	-0.721	-0.101
MDAALKRSRSEEPAEILPPARDEEEEEEEGMEQGLEEEEEVDPRIQGELEKLNQSTDDINRRETELEDARQKFRSVLVEATVKLDELVKKIGKAVEDSKPYWEARRVARQAQLEAQKATQDFQRATEVLRAAKETISLAEQRLLEDDKRQFDSAWQEMLNHATQRVMEAEQTKTRSELVHKETAARYNAAMGRMRQLEKKLKRAINKSKPYFELKAKYYVQLEQLKKTVDDLQAKLTLAKGEYKMALKNLEMISDEIHERRRSSAMGPRGCGVGAEGSSTSVEDLPGSKPEPDAISVASEAFEDDSCSNFVSEDDSETQSVSSFSSGPTSPSEMPDQFPAVVRPGSLDLPSPVSLSEFGMMFPVLGPRSECSGASSPECEVERGDRAEGAENKTSDKANNNRGLSSSSGSGGSSKSQSSTSPEGQALENRMKQLSLQCSKGRDGIIADIKMVQIG [SH3BP5]	0.134	53.2	52	-0.0509	-1.02	-0.824
MDALKSAGRALIRSPSLAKQSWGGGGRHRKLPENWTDTRETLLEGMLFSLKYLGMTLVEQPKGEELSAAAIKRIVATAKASGKKLQKVTLKVSPRGIILTDNLTNQLIENVSIYRISYCTADKMHDKVFAYIAQSQHNQSLECHAFLCTKRKMAQAVTLTVAQAFKVAFEFWQVSKEEKEKRDKASQEGGDVLGARQDCTPSLKSLVATGNLLDLEETAKAPLSTVSANTTNMDEVPRPQALSGSSVVWELDDGLDEAFSRLAQSRTNPQVLDTGLTAQDMHYAQCLSPVDWDKPDSSGTEQDDLFSF [LDLRAP1]	0.466		50	0.0321	-0.147	0.000284
MDALQLANSAFAVDLFKQLCEKEPLGNVLFSPICLSTSLSLAQVGAKGDTANEIGQVLHFENVKDVPFGFQTVTSDVNKLSSFYSLKLIKRLYVDKSLNLSTEFISSTKRPYAKELETVDFKDKLEETKGQINNSIKDLTDGHFENILADNSVNDQTKILVVNAAYFVGKWMKKFSESETKECPFRVNKTDTKPVQMMNMEATFCMGNIDSINCKIIELPFQNKHLSMFILLPKDVEDESTGLEKIEKQLNSESLSQWTNPSTMANAKVKLSIPKFKVEKMIDPKACLENLGLKHIFSEDTSDFSGMSETKGVALSNVIHKVCLEITEDGGDSIEVPGARILQHKDELNADHPFIYIIRHNKTRNIIFFGKFCSP [SERPINB5]	0.403	52.3	52.6	-0.146	1.51	0.174

Reference: the supplement of paper PMC5998384
